Paper PMC7755208, “Design of novel granulopoietic proteins by topological rescaffolding” (PLoS Biology, 2020)

Assays:
[1] = target: T1, recombinant human G-CSF receptor (R&D systems 381-GR-050/CF) (human, UniProt Q99062 25-333); test: SPR; Biacore X100, multi-cycle kinetics; G-CSFR immobilised on a CM5 chip by amine coupling; analytes in 10 mM HEPES pH 7.4, 150 mM NaCl, 3.4 mM EDTA, 0.005% Tween-20; 25°C, 30 uL/min; 1:1 model, ka and kd from a linear fit of kobs against concentration; settings: both partners purified
T1 construct: granulocyte colony-stimulating factor receptor, human, recombinant; As recalled, this catalogue item is a soluble extracellular form of the receptor; also called rhG-CSFR; granulocyte colony-stimulating factor receptor; source: bought: R&D systems 381-GR-050/CF
T1 sequence: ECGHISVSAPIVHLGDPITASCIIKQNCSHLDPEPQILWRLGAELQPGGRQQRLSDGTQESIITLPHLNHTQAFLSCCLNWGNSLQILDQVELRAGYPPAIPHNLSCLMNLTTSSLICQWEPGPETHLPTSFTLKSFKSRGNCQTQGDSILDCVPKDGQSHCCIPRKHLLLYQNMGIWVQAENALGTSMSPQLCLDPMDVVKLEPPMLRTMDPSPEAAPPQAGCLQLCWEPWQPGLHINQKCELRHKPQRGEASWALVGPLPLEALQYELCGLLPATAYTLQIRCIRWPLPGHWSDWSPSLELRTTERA

[2] = target: T1, recombinant human G-CSF receptor (R&D …); test: as above; settings: both partners purified; remark: listed apart in the source

- Kd [1]: 1.4 nM
- Kd [2]: 1.1 nM
- koff [2]: 0.00049 s⁻¹
- kon [2]: 300000 M⁻¹ s⁻¹
B1: recombinant human granulocyte colony-stimulating factor (USP RS Filgrastim) (ligand, UniProt P09919-2 31-204, looked up)
chain: TPLGPASSLPQSFLLKCLEQVRKIQGDGAALQEKLCATYKLCHPEELVLLGHSLGIPWAPLSSCPSQALQLAGCLSQLHSGLFLYQGLLQALEGISPELGPTLDTLQLDVADFATTIWQQMEELGMAPALQPTQGAMPAFASAFQRRAGGVLVASHLQSFLEVSYRVLRHLAQP
notes: granulocyte colony-stimulating factor, human, as filgrastim; printed size 19 kDa; The SPR methods name filgrastim; also called rhG-CSF; G-CSF; source: bought: USP RS Filgrastim, Sigma-Aldrich 1270435
